Assay results taken from patent US20040180354A1 (MANNKIND, published 2004).
Values belong to the binder of their own block, whether it stands above or below them.

Tests used:
[1] = biological target: T1, HLA-A2.1 (HLA-A*0201) on the surface of T2 cells (human); assay: HLA-A2 binding assay, FACS profiles (T2 cells); the weaker of the two 9-mers
T1 construct: MHC class I molecule on T2 cells

[2] = biological target: T1, HLA-A2.1 (HLA-A*0201) on the surface of …; assay: HLA-A2 binding assay, FACS profiles (T2 cells)
[3] = biological target: T1, HLA-A2.1 (HLA-A*0201) on the surface of …; assay: T2 cell HLA-A2.1 stabilisation, flow cytometry with FITC anti-HLA A2, A28
[4] = biological target: T1, HLA-A2.1 (HLA-A*0201) on the surface of …; assay: T2 cell HLA-A*0201 stabilisation, flow cytometry

B1: tyrosinase208-216, LPWHRLFLL (peptide)
peptide: LPWHRLFLL
notes: Synthetic 9-mer from tyrosinase; also called Tyr 208-216
- binding result [1]: binds

B2: tyrosinase207-215, FLPWHRLFL (peptide)
peptide: FLPWHRLFL
notes: Synthetic 9-mer from tyrosinase; also called Tyr 207-215
- binding result [2]: binds

Results, then the binder that gave them:

- binding result [3]: binds
Binder: KASEKIFYV (also called 15) [SSX-2 41-49, KASEKIFYV]

- binding result [4]: binds
B3: PSMA663-671 (SEQ ID NO. 66) (peptide)
peptide: MMNDQLMFL
notes: Synthetic 9-mer from prostate specific membrane antigen
